Test results published in publication PMC10955725.

Target: His6-Mb(S2)-Avi, recombinant monobody
Assay: BLI

Substance: wild-type (WT) SOD1, non-tagged recombinant (from UniProt P00441 2-154) (natural protein)
- Kd: 7 µM
